Source: PMC2906495, “A kinesin motor in a force-producing conformation” (BMC Structural Biology, 2010)

What was measured:
[1] = molecular target: microtubules (polymerized tubulin)
[2] = molecular target: the molecule itself; assay: crystal structure; NcdT436S at 4.5 mg/ml incubated with 4 mM MgCl2 and 4 mM ATP, hanging drops at room temperature, 11.5% PEG 8K, 25 mM sodium-phosphate pH 6.26, 0.5 M NaCl; molecular replacement with PDB 1N6M; two chains (A, B) joined by the coiled-coil stalk

Row | K (m,MTs) of the microtubule-stimulated steady-state ATPase (0.5 μM motor, 1 mM MgATP, 0-2.5 μM microtubules) [1] [µM] | Binder | binding result [2]
1 | 1.3 | GST/NcdT436S (GST-…-K210-K700) (domain or fragment) SDLVPRGSPVKTKYEKQTEDMGELESMPQQLEETQNKLIETESSLKNTQSDNECLQRQVKQHTAKIETITSTLGRTKEELSELQAIHEKVKTEHAALSTEVVHLRQRTEELLRCNEQQAAELETCKEQLFQSNMERKELHNTVMDLRGNIRVFCRIRPPLESEENRMCCTWTYHDESTVELQSIDAQAKSKMGQQIFSFDQVFHPLSSQSDIFEMVSPLIQSALDGYNICIFAYGQSGSGKTYTMDGVPESVGVIPRTVDLLFDSIRGYRNLGWEYEIKATFLEIYNEVLYDLLSNEQKDMEIRMAKNNKNDIYVSNITEETVLDPNHLRHLMHTAKMNRATASTAGNERSSRSHAVTKLELIGRHAEKQEISVGSINLVDLAGSESPKTSTRMTETKNINRSLSELTNVILALLQKQDHIPYRNSKLTHLLMPSLGGNSKTLMFINVSPFQDCFQESVKSLRFAASVNSCKMTKAKRNRYLNNSVANSSTQSNNSGSFDK | 
2 | 1.6 | wild-type GST/Ncd (GST/MC1) (domain or fragment) KTKYEKQTEDMGELESMPQQLEETQNKLIETESSLKNTQSDNECLQRQVKQHTAKIETITSTLGRTKEELSELQAIHEKVKTEHAALSTEVVHLRQRTEELLRCNEQQAAELETCKEQLFQSNMERKELHNTVMDLRGNIRVFCRIRPPLESEENRMCCTWTYHDESTVELQSIDAQAKSKMGQQIFSFDQVFHPLSSQSDIFEMVSPLIQSALDGYNICIFAYGQTGSGKTYTMDGVPESVGVIPRTVDLLFDSIRGYRNLGWEYEIKATFLEIYNEVLYDLLSNEQKDMEIRMAKNNKNDIYVSNITEETVLDPNHLRHLMHTAKMNRATASTAGNERSSRSHAVTKLELIGRHAEKQEISVGSINLVDLAGSESPKTSTRMTETKNINRSLSELTNVILALLQKQDHIPYRNSKLTHLLMPSLGGNSKTLMFINVSPFQDCFQESVKSLRFAASVNSCKMTKAKRNRYLNNSVANSSTQSNNSGSFDK | 
3 |  | NcdT436S, nonfusion protein for crystallization (MGSM-H293-K700) (domain or fragment, Drosophila, N-terminal leader of the construct MGSM-H293-K700; kinesin-14 Ncd of Drosophila, residues H293-K700 (part of the coiled-coil stalk, neck, motor domain and C-terminus), with T436S in the P-loop; The printed mass of 93,692 Da fits two chains (dimer); In the crystal, chain A is visible from M292 to K671 and chain B from G290 to K674; also called kinesin-14 Ncd T436S; source: E. coli BL21(DE3)pLysS …) MGSMHAALSTEVVHLRQRTEELLRCNEQQAAELETCKEQLFQSNMERKELHNTVMDLRGNIRVFCRIRPPLESEENRMCCTWTYHDESTVELQSIDAQAKSKMGQQIFSFDQVFHPLSSQSDIFEMVSPLIQSALDGYNICIFAYGQSGSGKTYTMDGVPESVGVIPRTVDLLFDSIRGYRNLGWEYEIKATFLEIYNEVLYDLLSNEQKDMEIRMAKNNKNDIYVSNITEETVLDPNHLRHLMHTAKMNRATASTAGNERSSRSHAVTKLELIGRHAEKQEISVGSINLVDLAGSESPKTSTRMTETKNINRSLSELTNVILALLQKQDHIPYRNSKLTHLLMPSLGGNSKTLMFINVSPFQDCFQESVKSLRFAASVNSCKMTKAKRNRYLNNSVANSSTQSNNSGSFDK | binds
